Data from article PMC3985631, “The crystal structure of TDP-43 RRM1-DNA complex reveals the specific recognition for UG- and TG-rich nucleic acids”.

B1: PS1 (ssRNA)
RNA: AGAGUGAAAAUG
B2: (CA)6 RNA (ssRNA)
RNA: CACACACACACA
B3: 10-nt Se-labelled ssDNA (ssDNA)
DNA: GTTGAGCGTT
modifications: 2'-methylseleno-adenosine at A5
B4: (UG)15 RNA (ssRNA)
RNA: UGUGUGUGUGUGUGUGUGUGUGUGUGUGUG
B5: PS2 (ssRNA)
RNA: CGCGUGCCCCUG
B6: (TG)15 DNA (ssDNA)
DNA: TGTGTGTGTGTGTGTGTGTGTGTGTGTGTG
B7: (UG)6 RNA (ssRNA)
RNA: UGUGUGUGUGUG

Assays:
[1] = target: T1, TDP-43 hN12 WT (human, UniProt Q13148 1-259); assay: filter binding; 2 uM protein; Filter binding: 50 mM phosphate, 50 mM imidazole, 10 mM beta-mercaptoethanol, pH 7.5, room temperature, 30 min, 10 pmol 32P-labelled nucleic acid; details: protein: recombinant; chain copies: 2
T1 sequence (Q13148 1-259): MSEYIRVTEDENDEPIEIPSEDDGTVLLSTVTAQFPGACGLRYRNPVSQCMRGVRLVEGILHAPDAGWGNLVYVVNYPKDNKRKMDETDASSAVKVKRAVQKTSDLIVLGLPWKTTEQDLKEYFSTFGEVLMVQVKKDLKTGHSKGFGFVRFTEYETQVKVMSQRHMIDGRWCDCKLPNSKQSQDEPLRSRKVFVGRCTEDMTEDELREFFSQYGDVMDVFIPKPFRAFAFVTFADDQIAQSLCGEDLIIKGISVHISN

[2] = target: T2, TDP-43 RRM1 (hRRM1) WT (human, UniProt Q13148 101-191); assay: crystal structure 2.75 A; Filter binding: 50 mM phosphate, 50 mM imidazole, 10 mM beta-mercaptoethanol, pH 7.5, room temperature, 30 min, 10 pmol 32P-labelled nucleic acid; details: protein: recombinant; tags: N-terminal His (pQE30)
T2 sequence (Q13148 101-191): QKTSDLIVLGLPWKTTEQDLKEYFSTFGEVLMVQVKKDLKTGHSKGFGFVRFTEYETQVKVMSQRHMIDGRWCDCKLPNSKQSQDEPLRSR

[3] = target: T1, TDP-43 hN12 WT; assay: filter binding; Filter binding: 50 mM phosphate, 50 mM imidazole, 10 mM beta-mercaptoethanol, pH 7.5, room temperature, 30 min, 10 pmol 32P-labelled nucleic acid; details: protein: recombinant; chain copies: 2; label: 5'-32P
[4] = target: T2, TDP-43 RRM1 (hRRM1) WT; assay: as above; details: protein: recombinant; tags: N-terminal His (pQE30); label: 5'-32P

| Binder | binding signal [1] | other results |
| --- | --- | --- |
| B1 | 23.1 ± 0.8 % bound | – |
| B2 | 0.6 ± 1 % bound | – |
| B3 | – | binding result [2]: binds |
| B4 | – | Kd [3]: 5.3 ± 1.2 nM |
| B5 | 6.2 ± 0.8 % bound | – |
| B6 | – | Kd [4]: 20.6 ± 1.8 nM |
| B7 | 67.9 ± 1.9 % bound | – |
